In the supplement of paper PMC10567573:

B1: CDC25A (parent)
chain: KPIVPTDGKRVIVVFHCEFSSERG
B2: SOAT2 (parent)
chain: SLGKQKVFIIRKSLLDELMEVQHF

Variants of: B1
Test: protein stability index of a GFP-peptide fusion (GPS, HEK-293T) (PSI 1-6); higher = more stable
Settings: c terminus: a fixed tail appended
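Further: lentivirally expressed fusions sorted by FACS into six bins by GFP to DsRed ratio, PSI derived from sequencing read proportions per bin multiplied by bin number.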

Variant	protein stability index
KPIVPTDGKRVIVVFHCEFSSTRG [E22T]	2.75
KPIVPTDGKRVIVVFHCEFSSKRG [E22K]	1.99
KPIVPTDGKRVIVVFHCEFSSIRG [E22I]	2.65
KPIVPTDGKRVIVVFHCEFSSYRG [E22Y]	3.49
KPIVPTDGKRVIVVFHCEFSSSRG [E22S]	3.61
KPIVPTDGKRVIVVFHCEFSSMRG [E22M]	2.29
KPIVPTDGKRVIVVFHCEFSSQRG [E22Q]	1.96
KPIVPTDGKRVIVVFHCEFSSNRG [E22N]	2.29
KPIVPTDGKRVIVVFHCEFSSVRG [E22V]	2.03
KPIVPTDGKRVIVVFHCEFSSRRG [E22R]	2.68
KPIVPTDGKRVIVVFHCEFSSPRG [E22P]	2.64
KPIVPTDGKRVIVVFHCEFSSLRG [E22L]	3.4
KPIVPTDGKRVIVVFHCEFSSWRG [E22W]	2.99
KPIVPTDGKRVIVVFHCEFSSERE [G24E]	1.93
KPIVPTDGKRVIVVFHCEFSSERR [G24R]	3.92
KPIVPTDGKRVIVVFHCEFSSERS [G24S]	2.92
KPIVPTDGKRVIVVFHCEFSSERL [G24L]	1.85
KPIVPTDGKRVIVVFHCEFSSERT [G24T]	3.03
KPIVPTDGKRVIVVFHCEFSSERH [G24H]	3.36
KPIVPTDGKRVIVVFHCEFSSERP [G24P]	2.66
KPIVPTDGKRVIVVFHCEFSSERA [G24A]	1.29
KPIVPTDGKRVIVVFHCEFSSERQ [G24Q]	3.67
KPIVPTDGKRVIVVFHCEFSSERN [G24N]	2.29
KPIVPTDGKRVIVVFHCEFSSERD [G24D]	2.09
KPIVPTDGKRVIVVFHCEFSSERY [G24Y]	2.74

Variant	protein stability index
KPIVPTDGKRVIVVFHCEFSSERV [G24V]	2.56
KPIVPTDGKRVIVVFHCEFSSERI [G24I]	4.86
KPIVPTDGKRVIVVFHCEFSSERW [G24W]	3.51
KPIVPTDGKRVIVVFHCEFSSERK [G24K]	1.44
KPIVPTDGKRVIVVFHCEFSSERC [G24C]	2.7
KPIVPTDGKRVIVVFHCEFSSERM [G24M]	3.17
KPIVPTDGKRVIVVFHCEFSSEEG [R23E]	2.14
KPIVPTDGKRVIVVFHCEFSSEVG [R23V]	3.12
KPIVPTDGKRVIVVFHCEFSSEHG [R23H]	1.84
KPIVPTDGKRVIVVFHCEFSSEGG [R23G]	1.6
KPIVPTDGKRVIVVFHCEFSSECG [R23C]	2.82
KPIVPTDGKRVIVVFHCEFSSEPG [R23P]	2.35
KPIVPTDGKRVIVVFHCEFSSEFG [R23F]	3.05
KPIVPTDGKRVIVVFHCEFSSETG [R23T]	3.36
KPIVPTDGKRVIVVFHCEFSSELG [R23L]	2.44
KPIVPTDGKRVIVVFHCEFSSEDG [R23D]	2.52
KPIVPTDGKRVIVVFHCEFSSEYG [R23Y]	2.99
KPIVPTDGKRVIVVFHCEFSSEQG [R23Q]	2.61
KPIVPTDGKRVIVVFHCEFSSEMG [R23M]	2.92
KPIVPTDGKRVIVVFHCEFSSEIG [R23I]	3.36
KPIVPTDGKRVIVVFHCEFSSEWG [R23W]	1.55
KPIVPTDGKRVIVVFHCEFSSENG [R23N]	3.72
KPIVPTDGKRVIVVFHCEFSSESG [R23S]	2.19
KPIVPTDGKRVIVVFHCEFSSEKG [R23K]	2.67

Variants of: B2
Test: as above
Settings: c terminus: a fixed tail appended

Variant	protein stability index
ELGKQKVFIIRKSLLDELMEVQHF [S1E]	2.99
KLGKQKVFIIRKSLLDELMEVQHF [S1K]	2.94
QLGKQKVFIIRKSLLDELMEVQHF [S1Q]	2.6
ILGKQKVFIIRKSLLDELMEVQHF [S1I]	3.6
ALGKQKVFIIRKSLLDELMEVQHF [S1A]	2.41
NLGKQKVFIIRKSLLDELMEVQHF [S1N]	2.68
LLGKQKVFIIRKSLLDELMEVQHF [S1L]	3.27
RLGKQKVFIIRKSLLDELMEVQHF [S1R]	1.94
TLGKQKVFIIRKSLLDELMEVQHF [S1T]	4.03
YLGKQKVFIIRKSLLDELMEVQHF [S1Y]	1.34
HLGKQKVFIIRKSLLDELMEVQHF [S1H]	2
FLGKQKVFIIRKSLLDELMEVQHF [S1F]	1.92
CLGKQKVFIIRKSLLDELMEVQHF [S1C]	2.9
PLGKQKVFIIRKSLLDELMEVQHF [S1P]	2.99
MLGKQKVFIIRKSLLDELMEVQHF [S1M]	2.1
VLGKQKVFIIRKSLLDELMEVQHF [S1V]	2
SCGKQKVFIIRKSLLDELMEVQHF [L2C]	3.02
SYGKQKVFIIRKSLLDELMEVQHF [L2Y]	2.69
STGKQKVFIIRKSLLDELMEVQHF [L2T]	3.3
SSGKQKVFIIRKSLLDELMEVQHF [L2S]	3.5
SQGKQKVFIIRKSLLDELMEVQHF [L2Q]	2.21
SMGKQKVFIIRKSLLDELMEVQHF [L2M]	2.25
SDGKQKVFIIRKSLLDELMEVQHF [L2D]	1.4

Variant	protein stability index
SNGKQKVFIIRKSLLDELMEVQHF [L2N]	2.58
SEGKQKVFIIRKSLLDELMEVQHF [L2E]	1.75
SFGKQKVFIIRKSLLDELMEVQHF [L2F]	3.72
SVGKQKVFIIRKSLLDELMEVQHF [L2V]	3.51
SRGKQKVFIIRKSLLDELMEVQHF [L2R]	2.42
SHGKQKVFIIRKSLLDELMEVQHF [L2H]	3.11
SAGKQKVFIIRKSLLDELMEVQHF [L2A]	2.94
SKGKQKVFIIRKSLLDELMEVQHF [L2K]	1.44
SLGKQKHFIIRKSLLDELMEVQHF [V7H]	1.59
SLGKQKDFIIRKSLLDELMEVQHF [V7D]	1.48
SLGKQKGFIIRKSLLDELMEVQHF [V7G]	1.82
SLGKQKEFIIRKSLLDELMEVQHF [V7E]	1.67
SLGKQKFFIIRKSLLDELMEVQHF [V7F]	2.56
SLGKQKIFIIRKSLLDELMEVQHF [V7I]	3.05
SLGKQKWFIIRKSLLDELMEVQHF [V7W]	2.34
SLGKQKNFIIRKSLLDELMEVQHF [V7N]	1.92
SLGKQKMFIIRKSLLDELMEVQHF [V7M]	1.82
SLGKQKLFIIRKSLLDELMEVQHF [V7L]	3.44
SLGKQKRFIIRKSLLDELMEVQHF [V7R]	2.16
SLGKQKQFIIRKSLLDELMEVQHF [V7Q]	1.82
SLGKQKKFIIRKSLLDELMEVQHF [V7K]	2
SLGKQKYFIIRKSLLDELMEVQHF [V7Y]	2.33
